The results in this text go back to publication PMC5643300.

The target in experiment [1] is major outer sheath protein, native periplasmic conformer (Treponema denticola ATCC 35405 (endogenous)). As to the kind of experiment: SDS-PAGE without boiling, immunoblot; 2% DDM-solubilized pellet of sonicated T. denticola, run with and without boiling, anti-MOSP^Fl; TX-114 phase partitioning of the same material. A general note: A western blot detects proteins with antibodies after separation by electrophoresis.

Experiment [2] has the same target. As to the kind of experiment: SDS-PAGE without boiling, immunoblot; NP-40 supernatant (OM conformer) and TX-114 aqueous phase (periplasmic conformer) of T. denticola in Laemmli buffer, with and without boiling; antisera to MOSP^Fl, PrtP, PrcA1, PrcA2, PrcB.
Experiment [3] has as its target major outer sheath protein, native outer membrane conformer (Treponema denticola ATCC 35405 (endogenous)). As to the kind of experiment: SDS-PAGE without boiling, immunoblot; 2% DDM-solubilized pellet of sonicated T. denticola, run with and without boiling, anti-MOSP^Fl; TX-114 phase partitioning of the same material.
For experiment [4] the target is unchanged. The experiment is described as follows: SDS-PAGE without boiling, immunoblot; NP-40 supernatant (OM conformer) and TX-114 aqueous phase (periplasmic conformer) of T. denticola in Laemmli buffer, with and without boiling; antisera to MOSP^Fl, PrtP, PrcA1, PrcA2, PrcB.
The target in experiment [5] is MOSP^C, C-terminal domain of the major outer sheath protein (recombinant, refolded) (Treponema denticola). The experiment is described as follows: SEC + other: negative-stain TEM of nanodiscs; MOSP^C incorporated into small D7 DMPC nanodiscs, S200 column, Tris-NaCl buffer pH 7.5; peaks examined by SDS-PAGE and TEM.
The target is the same in experiment [6]. The experiment is described as follows: negative-stain TEM of nanodiscs; MOSP^C refolded in DDM and incorporated into large MSP1E3D1 (E3D1) DMPC nanodiscs; SEC peak fractions, uranyl formate stain, averaged images.
Experiment [7] has as its target MOSP expressed in E. coli with a PelB signal sequence (Treponema denticola). The experiment is described as follows: native gel or EMSA; BN-PAGE and immunoblot of the 2% DDM extract of the outer membrane fraction of E. coli expressing PelB-MOSP. In general terms: Mobility shift assays separate free from complexed probe on a gel.

Turning to “major outer sheath protein, native periplasmic conformer (natural protein)”, the stoichiometry N in experiment [1] and in experiment [2] was 3 throughout. Turning to “major outer sheath protein, native outer membrane conformer (natural protein)”, the stoichiometry N in experiment [3] and in experiment [4] was 3 throughout. “MOSP^C, C-terminal domain of the major outer sheath protein (recombinant, refolded) (domain or fragment)”: the stoichiometry N in experiment [5] and in experiment [6] was 3 throughout.

As to “MOSP expressed in E. coli with a PelB signal sequence (natural protein)”, the stoichiometry N – broadly, a count of units in the complex or per binding partner – in experiment [7] turned out to be 3.
